# Measured values as given in US20250152663A1, “COMPOSITION FOR PREVENTION OR TREATMENT OF DRY EYE DISEASE COMPRISING HAPLN1” (HAPLNSCIENCE INC., priority 2021, published 2025).
# B1: hyaluronan and proteoglycan link protein 1 (HAPLN1) (protein, listed as Homo sapiens)
# chain: MKSLLLLVLISICWADHLSDNYTLDHDRAIHIQAENGPHLLVEAEQAKVFSHRGGNVTLPCKFYRDPTAFGSGIHKIRIKWTKLTSDYLKEVDVFVSMGYHKKTYGGYQGRVFLKGGSDSDASLVITDLTLEDYGRYKCEVIEGLEDDTVVVALDLQGVVFPYFPRLGRYNLNFHEAQQACLDQDAVIASFDQLYDAWRGGLDWCNAGWLSDGSVQYPITKPREPCGGQNTVPGVRNYGFWDKDKSRYDVFCFTSNFNGRFYYLIHPTKLTYDEAVQACLNDGAQIAKVGQIFAAWKILGYDRCDAGWLADGSVRYPISRPRRRCSPTEAAVRFVGFPDKKHKLYGVYCFRAYN
# Legend:
# [1] = system: NFκB in human corneal epithelial cells; test: Western blot of NFκB activity under high osmotic pressure; assay type: cell-based; details: HCEC, 450 mOsM
# Experimental: In addition, the activity of NFκB that is an important transcription factor in expression of the inflammatory factors was identified by Western blot analysis (FIG. 4B). Preparation of the experiment was performed under the same conditions of those of Cytokine array performed as described above and the ELISA was performed according to the manufacturer's instructions.
# corneal epithelial cells [2] = test: Detachment of corneal epithelial cells (H & E staining), mouse dry eye model; assay type: in vivo, C57BL/6; details: after 16 days of drug treatment, regardless of concentration
# Experimental: On the 2nd day after 16 days of drug treatment, eyes were enucleated and paraffin blocked, and tissue was stained by hematoxylin and eosin (H & E) staining on a prepared slide (FIG. 9A). The number of detached corneal epithelial cells was measured and quantified (FIG. 9B).
# [3] = system: goblet cells present in the conjunctiva; test: Goblet cells in conjunctiva (PAS staining), mouse dry eye model; assay type: in vivo, C57BL/6; details: 16th day
# Source text: On the 16th days from drug treatment, eyes were enucleated and paraffin blocked, and tissue was stained by PAS staining on a prepared slide (FIG. 10A). PAS staining specifically stains goblet cells. Because there are many mucopolysaccharides and mucoproteins in the goblet cells, […] thereof is oxidized by a periodic acid to form an aldehyde, which reacts with a Schiff reagent to be stained in red-purple.
# In this regard, the number of goblet cells present in the conjunctiva was measured and quantified (FIG. 10B). As a result, in the dry eye disease model, the number of damaged goblet cells decreased.
# IL-1β in lacrimal glands = test: IL-1β immunohistochemistry in lacrimal gland, mouse dry eye model; assay type: in vivo, C57BL/6; details: 5 μg/ml or more of HAPLN1, after 16 days of drug treatment
# Experimental: In this example, expression of IL-1B in lacrimal glands was identified by immunohistochemistry in order to identify an in vivo anti-inflammatory effect of the HAPLN1 protein-containing composition of the present disclosure. To this end, on the 2nd day after 16 days of drug treatment, eyes were enucleated and paraffin blocked. IHC was performed by using a prepared slide, and expression (brown) of IL-1β was identified by using an Anti-IL1β antibody (FIG. 11A). FIG. 11B is a graph illustrating quantified expression levels of IL-1β obtained in FIG. 11A.
# CD45 in lacrimal glands = test: CD45 immunofluorescence in lacrimal gland, mouse dry eye model; assay type: in vivo, C57BL/6; details: after 16 days of drug treatment
# Experimental: (§1) In this example, expression of CD45 was identified in lacrimal glands in order to identify in vivo anti-inflammatory effect of the HAPLN1 protein-containing composition of the present disclosure. That is, on the 2nd day after 16 days of drug treatment, eyes were enucleated and paraffin blocked. IHC-IF was performed on a section slide, and expression (green) of CD45 was identified by using an Anti-CD45 antibody. FIG. 12B is a graph illustrating quantified expression levels of FIG. 12A.
# [4] = system: CD11 b in lacrimal glands; test: CD11 b immunofluorescence in lacrimal gland, mouse dry eye model; assay type: in vivo, C57BL/6; details: after 16 days of drug treatment
# Experimental: as §1, with “CD11 b” for “CD45”, “Anti-CD11 b” for “Anti-CD45”, “13B” for “12B”, “13A (FIG. 13B).” for “12A.”
# rabbit dry eye model [5] = test: Corneal fluorescein score, 0.1% benzalkonium chloride-induced dry eye disease model; assay type: in vivo, New Zealand white rabbits
# Experimental: Corneal fluorescein score assay and tear volume assay were respectively performed on eyeballs of rabbits treated with the compositions of Preparation Examples 1, 2, and 3 prepared in Example 7 above by using a 0.1% benzalkonium chloride (BAC)-induced dry eye disease (DED) model.
# (§2) One drop (0.05 ml) of 0.1% benzalkonium chloride (BAC) was administered to both eyes of rabbits twice a day (9:00 and 17:00) for 14 days, and then induction of dry eye was identified by examination of eyes, and the rabbits were classified into groups.
# (§3) The test substance was dropped into the groups of the rabbit model twice a day (8:30 and 16:30) (Day 15 to 30 (total of 16 days)).
# (§4) Anesthesia was induced by intramuscular injection of Xylazine and Ketamine, and then one drop of Alcaine Eye Drop was administered and tear and the eye drop remaining therein were removed by using Weck-cel cellulose spear. After putting STT paper on the lower eyelid, a length of a wet region for 5 minutes was measured (STT-2). In addition, stability of the tear film was tested by measuring tear film break up time (TFBUT, measurement of time taken for the tear film to break down). Furthermore, conditions of the cornea and fluorescent staining were identified by a slit test.
# rabbit dry eye model [6] = test: Tear film break up time (TFBUT), benzalkonium chloride-induced dry eye disease model; assay type: in vivo, New Zealand white rabbits
# Experimental: as §2, §3, §4
# In this example, a method of measuring time until black spots appeared at fluorescent stained regions after applying one drop of sodium fluorescein to eyeballs. The black spots may appear within several seconds after blinking and occurs very quickly under the conditions of dry eye disease. That is, stability of the tear film was measured by measuring the tear film break up time (TFBUT, measurement of time taken for the tear film to break down).
# corneal epithelial cells [7] = test: Detached corneal epithelial cells (H & E staining), rabbit dry eye model; assay type: in vivo, New Zealand white rabbits
# Experimental: Eyes of the rabbits including conjunctiva were enucleated, fixed with a specific fixing solution to be embedded into paraffin, and microsectioned, followed by staining and analysis according to the purpose. In this regard, the eyeballs were stained by hematoxylin & eosin (H & E) staining and detachment of corneal epithelial tissue was analyzed. After PAS staining, distribution of goblet cells in the conjunctiva was measured. In addition, after conjunctiva epithelium indentation (impression cytology), PAS staining was performed and distribution of goblet cells was measured.
# After 15 days of eye examination, on the 1st day after 16 days of drug treatment, eyes were enucleated, subjected to histopathological analysis, and paraffin blocked. Tissue was stained in a section slide by H & E staining (FIG. 16A). The number of corneal epithelial cells detached in a range of 200 μm^2 was measured and quantified (FIG. 16B).
molecule,measurement,setting,value
B1,phosphorylation of NFκB,[1],reduced
same,number of damaged (detached) corneal epithelial cells,corneal epithelial cells [2],decreased
same,number of goblet cells compared with normal Sham control,[3],equivalent to that of the normal Sham control
same,number of goblet cells compared to the dry eye model,[3]; regardless of the concentration,significantly increased
same,expression of IL-1β in lacrimal gland,IL-1β in lacrimal glands,decreased to a level similar to that of Sham control
same,expression level of CD45 compared with Cyclosporine A,CD45 in lacrimal glands,reduced the expression level of CD45 more than Cyclosporine A
same,expression of CD45 in lacrimal glands,CD45 in lacrimal glands,decreased
same,expression level of CD11 b compared with Cyclosporine A,[4],reduced the expression level of CD11 b more than Cyclosporine A
same,expression of CD11 b in lacrimal glands,[4],decreased
same,reduction of CFS level compared with Restasis,rabbit dry eye model [5]; after 10 days,more than by Restasis
same,CFS level,"rabbit dry eye model [5]; eye drop 0.5, 5, 50 μg/ml b.i.d., regardless of the concentration",consistently decreased
same,increase of TFBUT compared with Restasis,"rabbit dry eye model [6]; after 10 days, regardless of the concentration of HAPLN1",more than by Restasis
same,tear film break up time (TFBUT),"rabbit dry eye model [6]; eye drop b.i.d., dry eye model less than 10 seconds",continuously increased
same,tear film break up time (TFBUT),rabbit dry eye model [6]; high concentration (50 μg/ml),≥ 30 s
same,number of detached corneal epithelial cells,"corneal epithelial cells [7]; after 16 days of drug treatment, concentration dependent",decreased
same,degree of detachment of corneal epithelial cells,corneal epithelial cells [7]; high concentration (50 μg/ml),lowest
